Measured values taken from patent US20130326725.

Key:
Experiment in all cases: cell_activity
[1] = system: ZFN 107830R (28492) (synthetic construct); conditions: as pair 107830L/R (pKG7479); tomato protoplasts, 48 h; also active in yeast assay
[2] = system: ZFN 107830L (28491) (synthetic construct); conditions: as pair 107830L/R (pKG7479); tomato protoplasts, 48 h; also active in yeast assay
[3] = system: ZFN 107832R (28536) (synthetic construct); conditions: as pair 107832L/R (pKG7480); tomato protoplasts, 48 h; also active in yeast assay
[4] = system: ZFN 107832L (28535) (synthetic construct); conditions: as pair 107832L/R (pKG7480); tomato protoplasts, 48 h; also active in yeast assay
[5] = system: ZFN 107835L (28563) (synthetic construct); conditions: as pair 107835L/R (pKG7482); tomato protoplasts, 48 h; also active in yeast assay
[6] = system: ZFN 107835R (28564) (synthetic construct); conditions: as pair 107835L/R (pKG7482); tomato protoplasts, 48 h; also active in yeast assay
[7] = system: ZFN 107833L (28549) (synthetic construct); conditions: as pair 107833L/R (pKG7481); tomato protoplasts, 48 h; also active in yeast assay
[8] = system: ZFN 107833R (28550) (synthetic construct); conditions: as pair 107833L/R (pKG7481); tomato protoplasts, 48 h; also active in yeast assay

## AGCATCCTATGTATCTCGCCGTGGATTCGCATCGGGATCCG (double strand) [107830R target]
[1]
  activity (% indel clones): 4.1

## CGGATCCCGATGCGAATCCACGGCGAGATACATAGGATGCT (double strand) [107830L target]
[2]
  activity (% indel clones): 4.1

## CTCTTTGGAGTTACCATGCTTGATGTGGTTAGGGCCAAG (double strand) [107832R target]
[3]
  activity (% indel clones): 5.5

## CTTGGCCCTAACCACATCAAGCATGGTAACTCCAAAGAG (double strand) [107832L target]
[4]
  activity (% indel clones): 5.5

## GGCTTATTACCTTGGATGCGAAGAAGGGAAGCTCGGTGAC (double strand) [107835L target]
[5]
  activity (% indel clones): 0.7

## GTCACCGAGCTTCCCTTCTTCGCATCCAAGGTAATAAGCC (double strand) [107835R target]
[6]
  activity (% indel clones): 0.7

## GTTATGCCAGCATGACCACCAACTACTGGGAGATTGACCTCTGAA (double strand) [107833L target]
[7]
  activity (% indel clones): 2

## TTCAGAGGTCAATCTCCCAGTAGTTGGTGGTCATGCTGGCATAAC (double strand) [107833R target]
[8]
  activity (% indel clones): 2
